Experimental data from paper PMC4601788.

Legend:
[1] = biological target: rLiPABP (poly(A)-binding protein) (Leishmania infantum) (UniProt A4IBV3); assay: ELONA
[2] = biological target: Flag-LiPABP (Leishmania infantum) (UniProt A4IBV3); assay: pull-down
[3] = biological target: Myc-LiPABP (Leishmania infantum) (UniProt A4IBV3); assay: competition
[4] = biological target: endogenous LiPABP (eLiPABP) (Leishmania infantum) (UniProt A4IBV3); assay: competition

## GTTGCTCGTATTTAGGGCGGCCCCCTCCTCCCTCCCCCACCCGACACTATTCCCCCCCACACCAGTCTTCATCCGC [ApPABP#11]
[1]
  Kd: 10.8 nM
[2]
  binding signal (% of total Flag-LiPABP recovered): < 50
[3]
  binding signal (% reduction of poly(A) binding): 80
[4]
  binding signal (% reduction of poly(A) binding): 30

## GCGGATGAAGACTGGTGTCCAGAGTGAACACAAAGAAATTGAAATACGTAAGCTCCGGGCCCTAAATACGAGCAAC [ApPABP#7]
[1]
  Kd: 6 nM
[2]
  binding signal (% of total Flag-LiPABP recovered): > 75

## GCGGATGAAGACTGGTGTGGACAGTTCTACGAGGATTACGCTGTTACTAAGTGTGGGGGCCCTAAATACGAGCAAC [ApPABP#3]
[1]
  Kd: 5.4 nM
[2]
  binding signal (% of total Flag-LiPABP recovered): > 75
